Data: IntAct's records for PubMed 23681068

B1: RNA-binding protein FUS (Homo sapiens), P35637 (parent)
chain: MASNDYTQQATQSYGAYPTQPGQGYSQQSSQPYGQQSYSGYSQSTDTSGYGQSSYSSYGQSQNTGYGTQSTPQGYGSTGGYGSSQSSQSSYGQQSSYPGYGQQPAPSSTSGSYGSSSQSSSYGQPQSGSYSQQPSYGGQQQSYGQQQSYNPPQGYGQQNQYNSSSGGGGGGGGGGNYGQDQSSMSSGGGSGGGYGNQDQSGGGGSGGYGQQDRGGRGRGGSGGGGGGGGGGYNRSSGGYEPRGRGGGRGGRGGMGGSDRGGFNKFGGPRDQGSRHDSEQDNSDNNTIFVQGLGENVTIESVADYFKQIGIIKTNKKTGQPMINLYTDRETGKLKGEATVSFDDPPSAKAAIDWFDGKEFSGNPIKVSFATRRADFNRGGGNGRGGRGRGGPMGRGGYGGGGSGGGGRGGFPSGGGGGGGQQRAGDWKCPNPTCENMNFSWRNECNQCKAPKPDGPGGGPGGSHMGGNYGDDRRGGRGGYDRGGYRGRGGDRGGFRGGRGGGDRGGFGPGKMDSRGEHRQDRRERPY

Variants of: B1
Details: with smn_mouse Smn1, P97801
Chain of smn_mouse Smn1, P97801 (P97801 whole entry): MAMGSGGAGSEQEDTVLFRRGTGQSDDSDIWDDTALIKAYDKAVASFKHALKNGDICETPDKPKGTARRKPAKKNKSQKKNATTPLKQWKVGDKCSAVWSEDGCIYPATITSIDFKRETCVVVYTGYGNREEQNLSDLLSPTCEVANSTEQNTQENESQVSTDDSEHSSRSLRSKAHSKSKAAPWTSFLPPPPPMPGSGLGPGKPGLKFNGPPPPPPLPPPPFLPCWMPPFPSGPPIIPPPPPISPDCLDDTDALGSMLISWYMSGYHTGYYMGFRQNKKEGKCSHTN

Row | effect of a mutation on the interaction | Variant
1 | increasing interaction strength | R521C
2 | increasing interaction strength | R521H
3 | increasing interaction strength | P525L

Variants of: B1
Details: with smn_mouse Smn1, P97801
Remark: another data set of the same source

Row | effect of a mutation on the interaction | Variant
4 | with no effect | R521C
